± gives the uncertainty stated by the source.
B1: RAS guanyl-releasing protein 1, residues 539 to 593; numbered along this chain, O95267 (parent)
chain: GFPHNFQETTYLKPTFCDNCAGFLWGVIKQGYRCKDCGMNCHKQCKDLVVFECKK
B2: POU domain, class 4, transcription factor 2, residues 256 to 327; numbered along this chain, Q12837 (parent)
chain: RDLEAFAERFKQRRIKLGVTQADVGSALANLKIPGVGSLSQSTICRFESLTLSHNNMIALKPILQAWLEEAE

Variants of: B1
Experiment: abundance fitness (aPCA) (normalised: wild type 0, dead -1); higher = more abundant; growth selection in yeast, the domain comes from the species named
Details: Homo sapiens
F16Q gave an abundance fitness of -0.243 ± 0.14. F16N gave an abundance fitness of -0.175 ± 0.096. In the case of L24A, the abundance fitness is reported as -0.396 ± 0.096. P14L showed an abundance fitness of -0.296 ± 0.075. In the case of L48C, the abundance fitness is reported as 0.069 ± 0.12. With K43A the abundance fitness was -0.049 ± 0.081. K13P gave an abundance fitness of -0.507 ± 0.072. K29M showed an abundance fitness of -0.052 ± 0.12. For I28V, the abundance fitness was -0.056 ± 0.044. Y11I gave an abundance fitness of -0.301 ± 0.097. For V50G, the abundance fitness was -0.076 ± 0.071. Work on C45Y yielded an abundance fitness of -0.575 ± 0.061. N5Q gave an abundance fitness of -0.051 ± 0.093. Work on N5Y yielded an abundance fitness of -0.459 ± 0.21. In the case of C20A, the abundance fitness is reported as -1.01 ± 0.089. For C20R, the abundance fitness was -0.74 ± 0.22. Q30G gave an abundance fitness of -0.52 ± 0.11. L12F showed an abundance fitness of -0.076 ± 0.09. Work on L12D yielded an abundance fitness of -0.424 ± 0.17.

Variants of: B2
Experiment: as above
Details: Homo sapiens
With N55H the abundance fitness was -0.326 ± 0.14. With N55A the abundance fitness was 0.137 ± 0.086. With I44K the abundance fitness was -0.065 ± 0.23. With R13T the abundance fitness was -0.165 ± 0.086. With R13N the abundance fitness was -0.401 ± 0.14. Variant R13D has an abundance fitness of -0.462 ± 0.34. With R13Q the abundance fitness was -0.113 ± 0.087. Variant E4G has an abundance fitness of -0.368 ± 0.063. Work on Q21P yielded an abundance fitness of -0.175 ± 0.082. In the case of Q21N, the abundance fitness is reported as -0.346 ± 0.39. Q21V showed an abundance fitness of 0.002 ± 0.07. Q41H showed an abundance fitness of 0.089 ± 0.11. Work on Q41P yielded an abundance fitness of -0.046 ± 0.063. In the case of Q41G, the abundance fitness is reported as 0.041 ± 0.048. In the case of Q41I, the abundance fitness is reported as -0.275 ± 0.14. K11Q showed an abundance fitness of -0.34 ± 0.13. L50M gave an abundance fitness of -0.003 ± 0.15. L50E gave an abundance fitness of -0.322 ± 0.24. Work on L50K yielded an abundance fitness of -0.128 ± 0.25. A29F gave an abundance fitness of -0.544 ± 0.14. Work on A29E yielded an abundance fitness of -0.239 ± 0.079. With A29L the abundance fitness was -0.158 ± 0.045. For S53G, the abundance fitness was -0.102 ± 0.059. In the case of E48Q, the abundance fitness is reported as -0.833 ± 0.15. E48H showed an abundance fitness of -0.818 ± 0.36. Work on E48P yielded an abundance fitness of -0.889 ± 0.17. Variant E70W has an abundance fitness of -0.45 ± 0.11. Variant E70P has an abundance fitness of -0.826 ± 0.16. For E70M, the abundance fitness was -0.332 ± 0.1. In the case of E70C, the abundance fitness is reported as -0.102 ± 0.11. In the case of A22E, the abundance fitness is reported as -0.066 ± 0.1. With A22P the abundance fitness was -0.463 ± 0.078. In the case of D2P, the abundance fitness is reported as -0.266 ± 0.069. For D2W, the abundance fitness was -0.185 ± 0.32. S26K gave an abundance fitness of -0.176 ± 0.35. Work on S26M yielded an abundance fitness of -0.057 ± 0.11. N56T showed an abundance fitness of -0.023 ± 0.25. R46C gave an abundance fitness of -0.059 ± 0.082. With R46H the abundance fitness was -0.118 ± 0.2. Variant R46Q has an abundance fitness of 0.122 ± 0.095. For L60T, the abundance fitness was -0.436 ± 0.14. Work on L60Q yielded an abundance fitness of -0.843 ± 0.16. In the case of L60G, the abundance fitness is reported as -0.713 ± 0.13. V36R gave an abundance fitness of -0.617 ± 0.071. In the case of V36N, the abundance fitness is reported as -0.387 ± 0.19. V36S gave an abundance fitness of -0.186 ± 0.071. For V36E, the abundance fitness was -0.139 ± 0.12. Work on V36C yielded an abundance fitness of -0.4 ± 0.15. V36H showed an abundance fitness of -0.267 ± 0.19. Work on F47Y yielded an abundance fitness of -0.53 ± 0.15. With L64H the abundance fitness was -0.769 ± 0.21. For L64P, the abundance fitness was -0.98 ± 0.12. Variant L64T has an abundance fitness of -0.769 ± 0.13. E8T gave an abundance fitness of -0.222 ± 0.079. With E8G the abundance fitness was -0.119 ± 0.056. Work on E8L yielded an abundance fitness of -0.072 ± 0.064. E8R gave an abundance fitness of 0.031 ± 0.041. With A7C the abundance fitness was -0.358 ± 0.13. In the case of A7W, the abundance fitness is reported as -0.709 ± 0.28. Variant L31H has an abundance fitness of -0.379 ± 0.25. L31M gave an abundance fitness of 0.032 ± 0.11. For L31D, the abundance fitness was -0.509 ± 0.26. A59M gave an abundance fitness of -0.003 ± 0.075. A59I showed an abundance fitness of 0.027 ± 0.14. A59V showed an abundance fitness of -0.207 ± 0.074. L39N gave an abundance fitness of -0.615 ± 0.35. In the case of L39R, the abundance fitness is reported as -0.718 ± 0.1. In the case of R9W, the abundance fitness is reported as -0.136 ± 0.074. With R9H the abundance fitness was 0.15 ± 0.077. Work on R9T yielded an abundance fitness of 0.033 ± 0.073. A5S gave an abundance fitness of -0.167 ± 0.097. Work on H54A yielded an abundance fitness of -0.005 ± 0.065. H54L showed an abundance fitness of -0.042 ± 0.049. Variant Q65G has an abundance fitness of -0.106 ± 0.043. Variant Q65N has an abundance fitness of -0.309 ± 0.15. In the case of S49E, the abundance fitness is reported as 0.134 ± 0.14. S38A showed an abundance fitness of -0.013 ± 0.046. Work on P62T yielded an abundance fitness of -0.533 ± 0.1. Work on P62L yielded an abundance fitness of -0.982 ± 0.15. With P62A the abundance fitness was -0.668 ± 0.082. In the case of P62I, the abundance fitness is reported as -0.638 ± 0.17. For P62G, the abundance fitness was -0.628 ± 0.11. For L28D, the abundance fitness was -0.596 ± 0.44. L28T gave an abundance fitness of -0.528 ± 0.084. In the case of L28V, the abundance fitness is reported as -0.143 ± 0.094. A71H gave an abundance fitness of -0.223 ± 0.25. Work on A71I yielded an abundance fitness of -0.11 ± 0.19. In the case of A71M, the abundance fitness is reported as -0.4 ± 0.17. Work on A71W yielded an abundance fitness of -0.057 ± 0.2. In the case of G18H, the abundance fitness is reported as -0.292 ± 0.088. G35S showed an abundance fitness of -0.228 ± 0.082. Work on G35R yielded an abundance fitness of -0.153 ± 0.1. G35A showed an abundance fitness of -0.323 ± 0.1. K16V gave an abundance fitness of -0.146 ± 0.082. Work on K32D yielded an abundance fitness of 0.054 ± 0.23. Variant R1V has an abundance fitness of -0.107 ± 0.088. Work on L17C yielded an abundance fitness of -0.704 ± 0.12. L17H showed an abundance fitness of -1.06 ± 0.4. V19R gave an abundance fitness of 0.03 ± 0.042. For V19Q, the abundance fitness was -0.027 ± 0.1. With V19I the abundance fitness was -0.189 ± 0.11. Work on L3I yielded an abundance fitness of 0.072 ± 0.1. In the case of I63T, the abundance fitness is reported as -0.098 ± 0.09. For I63V, the abundance fitness was -0.006 ± 0.035. In the case of I63L, the abundance fitness is reported as -0.217 ± 0.057. Variant G37E has an abundance fitness of -0.207 ± 0.12. For G37D, the abundance fitness was -0.198 ± 0.18. Work on L68M yielded an abundance fitness of -0.461 ± 0.26. In the case of L68W, the abundance fitness is reported as -0.663 ± 0.49. For N30L, the abundance fitness was -0.244 ± 0.064. Work on N30Q yielded an abundance fitness of -0.059 ± 0.067. For L52H, the abundance fitness was -0.729 ± 0.28. L52W showed an abundance fitness of -0.952 ± 0.22. P34I showed an abundance fitness of -0.402 ± 0.22. Variant P34W has an abundance fitness of -0.528 ± 0.12. For T51G, the abundance fitness was -0.181 ± 0.058. In the case of T51V, the abundance fitness is reported as -0.367 ± 0.079. Work on T43K yielded an abundance fitness of -0.624 ± 0.17. With T43C the abundance fitness was -0.232 ± 0.096. T43M gave an abundance fitness of -0.068 ± 0.16. T43E showed an abundance fitness of -0.574 ± 0.3. For T43D, the abundance fitness was -0.114 ± 0.13. With M57R the abundance fitness was -0.904 ± 0.088. F10V gave an abundance fitness of -0.59 ± 0.16. D23P gave an abundance fitness of -0.755 ± 0.067. D23L gave an abundance fitness of -0.252 ± 0.062. With E72D the abundance fitness was -0.425 ± 0.28. In the case of E72T, the abundance fitness is reported as -0.498 ± 0.28. With K61N the abundance fitness was -0.393 ± 0.21. Variant K61T has an abundance fitness of -0.02 ± 0.1. Work on A27H yielded an abundance fitness of -0.172 ± 0.12. Variant A27E has an abundance fitness of -0.029 ± 0.11. For A66H, the abundance fitness was -0.153 ± 0.097. Work on A66R yielded an abundance fitness of -0.008 ± 0.067. A66P gave an abundance fitness of -0.524 ± 0.068. In the case of A66K, the abundance fitness is reported as 0.004 ± 0.086. I33A showed an abundance fitness of -0.295 ± 0.063. Work on I33C yielded an abundance fitness of -0.395 ± 0.22. G25R gave an abundance fitness of -0.283 ± 0.046. Variant G25I has an abundance fitness of -0.145 ± 0.18. G25W showed an abundance fitness of -0.116 ± 0.064. For G25A, the abundance fitness was -0.006 ± 0.094. Variant E69A has an abundance fitness of -0.119 ± 0.083. E69H gave an abundance fitness of -0.481 ± 0.17. For E69S, the abundance fitness was -0.097 ± 0.051. Variant S42I has an abundance fitness of -0.272 ± 0.39. For S42T, the abundance fitness was -0.054 ± 0.081. S42G showed an abundance fitness of -0.11 ± 0.068.
